From the supplement of paper PMC5998384

Legend:
HeLa Kyoto [1] = assay: melting temperature (median over replicates), in situ; higher = more thermally stable
HeLa Kyoto [2] = assay: solubility in G1/S (NP-40 vs SDS abundance) (log2 ratio); higher = more soluble; conditions: cell cycle stage: G1/S
HeLa Kyoto [3] = assay: solubility change mitosis vs G1/S (difference of NP-40 vs SDS log2 ratios) (log2 ratio difference); higher = more soluble in mitosis
HeLa Kyoto [4] = assay: thermal stability score vs G1/S (z-score of summed log2 fold changes over temperatures); higher = more thermally stable than in G1/S
[5] = cell cycle stage: early G1 (4.5 h after nocodazole release)
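Wherever melting temperature (median over replicates), in situ is given: HeLa Kyoto cells synchronized by double thymidine or nocodazole block, proteins quantified by TMT10plex mass spectrometry, three independent biological replicates.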
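Wherever solubility change mitosis vs G1/S (difference of NP-40 vs SDS log2 ratios) is given: synchronized HeLa Kyoto cells (double thymidine block for G1/S, nocodazole release for mitosis), protein amounts in NP-40 versus SDS lysates quantified by mass spectrometry, three biological replicates.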
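Wherever solubility in G1/S (NP-40 vs SDS abundance) is given: HeLa Kyoto cells arrested at G1/S by double thymidine block, proteins quantified by TMT10plex mass spectrometry in mild NP-40 versus SDS extracts, three biological replicates.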
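Wherever thermal stability score vs G1/S (z-score of summed log2 fold changes over temperatures) is given: synchronized HeLa Kyoto cells, proteins quantified by TMT10plex mass spectrometry, three biological replicates, mitosis taken 0.5 h after nocodazole release, G1/S directly after double thymidine block.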

| Sequence | melting temperature (HeLa Kyoto [1]; cell cycle stage: G1/S) | melting temperature (HeLa Kyoto [1]; cell cycle stage: mitosis) | solubility in G1/S (log2) (HeLa Kyoto [2]) | solubility change mitosis (log2) (HeLa Kyoto [3]) | thermal stability score (HeLa Kyoto [4]; [5]) | thermal stability score (HeLa Kyoto [4]; cell cycle stage: mitosis) |
| --- | --- | --- | --- | --- | --- | --- |
| MASGGSGGVSVPALWSEVNRYGQNGDFTRALKTVNKILQINKDDVTALHCKVVCLIQNGSFKEALNVINTHTKVLANNSLSFEKAYCEYRLNRIENALKTIESANQQTDKLKELYGQVLYRLERYDECLAVYRDLVRNSQDDYDEERKTNLSAVVAAQSNWEKVVPENLGLQEGTHELCYNTACALIGQGQLNQAMKILQKAEDLCRRSLSEDTDGTEEDPQAELAIIHGQMAYILQLQGRTEEALQLYNQIIKLKPTDVGLLAVIANNIITINKDQNVFDSKKKVKLTNAEGVEFKLSKKQLQAIEFNKALLAMYTNQAEQCRKISASLQSQSPEHLLPVLIQAAQLCREKQHTKAIELLQEFSDQHPENAAEIKLTMAQLKISQGNISKACLILRSIEELKHKPGMVSALVTMYSHEEDIDSAIEVFTQAIQWYQNHQPKSPAHLSLIREAANFKLKYGRKKEAISDLQQLWKQNPKDIHTLAQLISAYSLVDPEKAKALSKHLPSSDSMSLKVDVEALENSAGATYIRKKGGKVTGDSQPKEQGQGDLKKKKKKKKGKLPKNYDPKVTPDPERWLPMRERSYYRGRKKGKKKDQIGKGTQGATAGASSELDASKTVSSPPTSPRPGSAATVSASTSNIIPPRHQKPAGAPATKKKQQQKKKKGGKGGW [SRP72] | 50.5 °C | 49.7 °C | -0.278 | 0.328 | -0.0233 | 0.35 |
| MASGRDERPPWRLGRLLLLMCLLLLGSSARAAHIKKAEATTTTTSAGAEAAEGQFDRYYHEEELESALREAAAAGLPGLARLFSIGRSVEGRPLWVLRLTAGLGSLIPEGDAGPDAAGPDAAGPLLPGRPQVKLVGNMHGDETVSRQVLIYLARELAAGYRRGDPRLVRLLNTTDVYLLPSLNPDGFERAREGDCGFGDGGPSGASGRDNSRGRDLNRSFPDQFSTGEPPALDEVPEVRALIEWIRRNKFVLSGNLHGGSVVASYPFDDSPEHKATGIYSKTSDDEVFKYLAKAYASNHPIMKTGEPHCPGDEDETFKDGITNGAHWYDVEGGMQDYNYVWANCFEITLELSCCKYPPASQLRQEWENNRESLITLIEKVHIGVKGFVKDSITGSGLENATISVAGINHNITTGRFGDFYRLLVPGTYNLTVVLTGYMPLTVTNVVVKEGPATEVDFSLRPTVTSVIPDTTEAVSTASTVAIPNILSGTSSSYQPIQPKDFHHHHFPDMEIFLRRFANEYPNITRLYSLGKSVESRELYVMEISDNPGVHEPGEPEFKYIGNMHGNEVVGRELLLNLIEYLCKNFGTDPEVTDLVHNTRIHLMPSMNPDGYEKSQEGDSISVIGRNNSNNFDLNRNFPDQFVQITDPTQPETIAVMSWMKSYPFVLSANLHGGSLVVNYPFDDDEQGLATYSKSPDDAVFQQIALSYSKENSQMFQGRPCKNMYPNEYFPHGITNGASWYNVPGGMQDWNYLQTNCFEVTIELGCVKYPLEKELPNFWEQNRRSLIQFMKQVHQGVRGFVLDATDGRGILNATISVAEINHPVTTYKTGDYWRLLVPGTYKITASARGYNPVTKNVTVKSEGAIQVNFTLVRSSTDSNNESKKGKGASSSTNDASDPTTKEFETLIKDLSAENGLESLMLRSSSNLALALYRYHSYKDLSEFLRGLVMNYPHITNLTNLGQSTEYRHIWSLEISNKPNVSEPEEPKIRFVAGIHGNAPVGTELLLALAEFLCLNYKKNPAVTQLVDRTRIVIVPSLNPDGRERAQEKDCTSKIGQTNARGKDLDTDFTNNASQPETKAIIENLIQKQDFSLSVALDGGSMLVTYPYDKPVQTVENKETLKHLASLYANNHPSMHMGQPSCPNKSDENIPGGVMRGAEWHSHLGSMKDYSVTYGHCPEITVYTSCCYFPSAARLPSLWADNKRSLLSMLVEVHKGVHGFVKDKTGKPISKAVIVLNEGIKVQTKEGGYFHVLLAPGVHNIIAIADGYQQQHSQVFVHHDAASSVVIVFDTDNRIFGLPRELVVTVSGATMSALILTACIIWCICSIKSNRHKDGFHRLRQHHDEYEDEIRMMSTGSKKSLLSHEFQDETDTEEETLYSSKH [CPD] | 55.5 °C | 53.8 °C | 0.211 | -0.0862 | -2.91 | -3.88 |
| MASGRRAPRTGLLELRAGAGSGAGGERWQRVLLSLAEDVLTVSPADGDPGPEPGAPREQEPAQLNGAAEPGAGPPQLPEALLLQRRRVTVRKADAGGLGISIKGGRENKMPILISKIFKGLAADQTEALFVGDAILSVNGEDLSSATHDEAVQVLKKTGKEVVLEVKYMKDVSPYFKNSTGGTSVGWDSPPASPLQRQPSSPGPTPRNFSEAKHMSLKMAYVSKRCTPNDPEPRYLEICSADGQDTLFLRAKDEASARSWATAIQAQVNTLTPRVKDELQALLAATSTAGSQDIKQIGWLTEQLPSGGTAPTLALLTEKELLLYLSLPETREALSRPARTAPLIATRLVHSGPSKGSVPYDAELSFALRTGTRHGVDTHLFSVESPQELAAWTRQLVDGCHRAAEGVQEVSTACTWNGRPCSLSVHIDKGFTLWAAEPGAARAVLLRQPFEKLQMSSDDGASLLFLDFGGAEGEIQLDLHSCPKTIVFIIHSFLSAKVTRLGLLA [SNTA1] | 51.2 °C | 49.2 °C | 0.0927 | -0.136 | -0.161 | 0.249 |
| MASGSGDSVTRRSVASQFFTQEEGPGIDGMTTSERVVDLLNQAALITNDSKITVLKQVQELIINKDPTLLDNFLDEIIAFQADKSIEVRKFVIGFIEEACKRDIELLLKLIANLNMLLRDENVNVVKKAILTMTQLYKVALQWMVKSRVISELQEACWDMVSAMAGDIILLLDSDNDGIRTHAIKFVEGLIVTLSPRMADSEIPRRQEHDISLDRIPRDHPYIQYNVLWEEGKAALEQLLKFMVHPAISSINLTTALGSLANIARQRPMFMSEVIQAYETLHANLPPTLAKSQVSSVRKNLKLHLLSVLKHPASLEFQAQITTLLVDLGTPQAEIARNMPSSKDTRKRPRDDSDSTLKKMKLEPNLGEDDEDKDLEPGPSGTSKASAQISGQSDTDITAEFLQPLLTPDNVANLVLISMVYLPEAMPASFQAIYTPVESAGTEAQIKHLARLMATQMTAAGLGPGVEQTKQCKEEPKEEKVVKTESVLIKRRLSAQGQAISVVGSLSSMSPLEEEAPQAKRRPEPIIPVTQPRLAGAGGRKKIFRLSDVLKPLTDAQVEAMKLGAVKRILRAEKAVACSGAAQVRIKILASLVTQFNSGLKAEVLSFILEDVRARLDLAFAWLYQEYNAYLAAGASGSLDKYEDCLIRLLSGLQEKPDQKDGIFTKVVLEAPLITESALEVVRKYCEDESRTYLGMSTLRDLIFKRPSRQFQYLHVLLDLSSHEKDKVRSQALLFIKRMYEKEQLREYVEKFALNYLQLLVHPNPPSVLFGADKDTEVAAPWTEETVKQCLYLYLALLPQNHKLIHELAAVYTEAIADIKRTVLRVIEQPIRGMGMNSPELLLLVENCPKGAETLVTRCLHSLTDKVPPSPELVKRVRDLYHKRLPDVRFLIPVLNGLEKKEVIQALPKLIKLNPIVVKEVFNRLLGTQHGEGNSALSPLNPGELLIALHNIDSVKCDMKSIIKATNLCFAERNVYTSEVLAVVMQQLMEQSPLPMLLMRTVIQSLTMYPRLGGFVMNILSRLIMKQVWKYPKVWEGFIKCCQRTKPQSFQVILQLPPQQLGAVFDKCPELREPLLAHVRSFTPHQQAHIPNSIMTILEASGKQEPEAKEAPAGPLEEDDLEPLTLAPAPAPRPPQDLIGLRLAQEKALKRQLEEEQKLKPGGVGAPSSSSPSPSPSARPGPPPSEEAMDFREEGPECETPGIFISMDDDSGLTEAALLDSSLEGPLPKETAAGGLTLKEERSPQTLAPVGEDAMKTPSPAAEDAREPEAKGNS [SYMPK] | 48.1 °C | 49.1 °C | 0.0291 | -0.0648 | 1.75 | 4.2 |
| MASGTTTTAVKIGIIGGTGLDDPEILEGRTEKYVDTPFGKPSDALILGKIKNVDCVLLARHGRQHTIMPSKVNYQANIWALKEEGCTHVIVTTACGSLREEIQPGDIVIIDQFIDRTTMRPQSFYDGSHSCARGVCHIPMAEPFCPKTREVLIETAKKLGLRCHSKGTMVTIEGPRFSSRAESFMFRTWGADVINMTTVPEVVLAKEAGICYASIAMATDYDCWKEHEEAVSVDRVLKTLKENANKAKSLLLTTIPQIGSTEWSETLHNLKNMAQFSVLLPRH [MTAP] | 60 °C | 60.5 °C | 0.254 | -0.0344 | -1.8 | -2.68 |
| MASILRSPQALQLTLALIKPDAVAHPLILEAVHQQILSNKFLIVRMRELLWRKEDCQRFYREHEGRFFYQRLVEFMASGPIRAYILAHKDAIQLWRTLMGPTRVFRARHVAPDSIRGSFGLTDTRNTTHGSDSVVSASREIAAFFPDFSEQRWYEEEEPQLRCGPVCYSPEGGVHYVAGTGGLGPA [NME6] | 51.3 °C | 55.2 °C | 0.31 | 0.636 | -2.16 | -1.08 |
| MASIMEGPLSKWTNVMKGWQYRWFVLDYNAGLLSYYTSKDKMMRGSRRGCVRLRGAVIGIDDEDDSTFTITVDQKTFHFQARDADEREKWIHALEETILRHTLQLQGLDSGFVPSVQDFDKKLTEADAYLQILIEQLKLFDDKLQNCKEDEQRKKIETLKETTNSMVESIKHCIVLLQIAKDQSNAEKHADGMISTINPVDAIYQPSPLEPVISTMPSQTVLPPEPVQLCKSEQRPSSLPVGPVLATLGHHQTPTPNSTGSGHSPPSSSLTSPSHVNLSPNTVPEFSYSSSEDEFYDADEFHQSGSSPKRLIDSSGSASVLTHSSSGNSLKRPDTTESLNSSLSNGTSDADLFDSHDDRDDDAEAGSVEEHKSVIMHLLSQVRLGMDLTKVVLPTFILERRSLLEMYADFFAHPDLFVSISDQKDPKDRMVQVVKWYLSAFHAGRKGSVAKKPYNPILGEIFQCHWTLPNDTEENTELVSEGPVPWVSKNSVTFVAEQVSHHPPISAFYAECFNKKIQFNAHIWTKSKFLGMSIGVHNIGQGCVSCLDYDEHYILTFPNGYGRSILTVPWVELGGECNINCSKTGYSANIIFHTKPFYGGKKHRITAEIFSPNDKKSFCSIEGEWNGVMYAKYATGENTVFVDTKKLPIIKKKVRKLEDQNEYESRSLWKDVTFNLKIRDIDAATEAKHRLEERQRAEARERKEKEIQWETRLFHEDGECWVYDEPLLKRLGAAKH [OSBPL9] | 48.7 °C | 49.2 °C | -0.0574 | -0.142 | 0.00752 | 0.954 |
| MASLLAKDAYLQSLAKKICSHSAPEQQARTRAGKTQGSETAGPPKKKRKKTQKKFRKREEKAAEHKAKSLGEKSPAASGARRPEAAKEEAAWASSSAGNPADGLATEPESVFALDVLRQRLHEKIQEARGQGSAKELSPAALEKRRRRKQERDRKKRKRKELRAKEKARKAEEATEAQEVVEATPEGACTEPREPPGLIFNKVEVSEDEPASKAQRRKEKRQRVKGNLTPLTGRNYRQLLERLQARQSRLDELRGQDEGKAQELEAKMKWTNLLYKAEGVKIRDDERLLQEALKRKEKRRAQRQRRWEKRTAGVVEKMQQRQDRRRQNLRRKKAARAERRLLRARKKGRILPQDLERAGLV [SURF6] | 56.5 °C | 54.5 °C | -1.46 | 1.25 | -2.48 | -6.87 |
| MASMAAAIAASRSAVMSGNRPLDDRERKRFTYFSSLSPMARKIMQDKEKIREKYGPEWARLPPAQQDEIIDRCLVGPRAPAPRDPGDSEELTRFPGLRGPTGQKVVRFGDEDLTWQDEHSAPFSWETKSQMEFSISALSIQEPSNGTAASEPRPLSKASQGSQALKSSQGSRSSSLDALGPTRKEEEASFWKINAERSRGEGPEAEFQSLTPSQIKSMEKGEKVLPPCYRQEPAPKDREAKVERPSTLRQEQRPLPNVSTERERPQPVQAFSSALHEAAPSQLEGKLPSPDVRQDDGEDTLFSEPKFAQVSSSNVVLKTGFDFLDNW [C1ORF198] | 51.6 °C | 53.2 °C | -0.228 | 0.253 | -0.542 | -1 |
